Measured values from patent US8409836B2, “Treatment of cellulosic material and enzymes useful therein” (Roal Oy, priority 2005, dated 2013).

B1: At EG_40_like: endoglucanase of Acremonium thermophilum ALKO4245, gene At cel45B, amino acid SEQ ID NO: 14 (protein)
chain: MRLPLPTLLALLPYYLEVSAQGASGTGTTTRYWDCCKPSCAWPLKGNSPSPVQTCDKNDRPLNDGGNTKSGCDNGGGAFMCSSQSPWAVNETTSYGWAAVRIAGSTESAWCCACYELTFTSGPVSGKKLIVQATNTGGDLGSNHFDLAIPGGGVGQSNACTNQYGAPPNGWGDRYGGVHSRSDCDSFPAALKAGCYWRFDWFQGADNPSVSFKQVACPAAITAKSGCTRQNDAINETPTGPSTVPTYTASG
B2: Ct βG_76: beta-glucosidase of Chaetomium thermophilum ALKO4261, gene Ct cel3A, amino acid SEQ ID NO: 26 (protein)
chain: MALHAFLLLASALLARGALSQPDNVRRAAPTGTAAWDAAHSQAAAAVSRLSQQDKINIVTGVGWGKGPCVGNTNPVYSINYPQLCLQDGPLGIRSATSVTAFTPGIQAASTWDVELIRQRGVYLGQEARGTGVHVLLGPVAGALGKIPHGGRNWEAFGSDPYLAGIAMSETIEGIQSEGVQACAKHYIANEQELNRETMSSNVDDRTMHELYLWPFADAVHSNVASVMCSYNKLNGTWLCENDRAQNQLLKRELGFRGYIVSDWNAQHTTVGSANSGMDMTMPGSDFNGWNVLWGPQLNNAVNSGQVSQSRLNDMVQRILAAWYLLGQNSGYPSINLRANVQANHKENVRAVARDGIVLLKNDGILPLQRPNKIALVGSAAVVNPRGMNACVDRGCNEGALGMGWGSGTVEYPYFVAPYDALRERAQRDGTQISLHASDNTNGVNNAVQGADAAFVFITADSGEGYITVEGHAGDRNHLDPWHNGNQLVQAVAQANKNVIVVVHSVGPVILETILNTPGVRAVVWAGLPSQESGNALVDVLYGLVSPSGKLVYTIAKSPSDYPTSIVRGDDNFREGLFIDYRHFDNARIEPRFEFGFGLSYTNFSYSNLGISSSATAGPATGPTVPGGPADLWNYVATVTATVTNTGGVEGAEVAQLYISLPSSAPASPPKQLRGFVKLKLAPGQSGTATFRLRKRDLAYWDVGRQNWVVPSGRFGVLVGASSRDIRLQGEIVV
B3: At EG_40: endoglucanase of Acremonium thermophilum ALKO4245, gene At cel45A, amino acid SEQ ID NO: 12 (protein)
chain: MRSSPFLRAALAAALPLSAHALDGKSTRYWDCCKPSCGWPGKASVNQPVFSCSADWQRISDFNAKSGCDGGSAYSCADQTPWAVNDNFSYGFAATAIAGGSESSWCCACYALTFNSGPVAGKTMVVQSTSTGGDLGSNQFDLAIPGGGVGIFNGCASQFGGLPGAQYGGISDRSQCSSFPAPLQPGCQWRFDWFQNADNPTFTFQRVQCPSELTSRTGCKRDDDASYPVFNPPSGGSPSTTSTTTSSPSGPTGNPPGGGGCTAQKWAQCGGTGFTGCTTCVSGTTCQVQNQWYSQCL

Assays:
Type in all cases: biochemical
[1] = pH optimum of heterologously produced endoglucanases; settings: McIlvaine's buffer; for pH optimum: pH range 4.0-8.0, CMC, 10 min, 50° C.
Description: (§1) The pH optimum of the heterologously produced endoglucanases was determined in the universal McIlvaine's buffer within a pH range of 4.0-8.0 using carboxymethylcellulose as substrate. As shown in FIG. 6 A the broadest pH range (4.5-6.0) is that of the Acremonium EG—40/Cel45A protein, the optimum being at pH 5.5. The pH optima for the other heterologously produced endoglucanases are pH 5.0-5.5 and 6.0 for Acremonium EG—40_like/Cel45B and Thermoascus EG—28/Cel5A, respectively. The optimal temperature for enzymatic activity of these endoglucanases was determined at the temperature range of 50-85° C. as described above. The highest activity of the enzymes was determined to be at 75° C., 60° C., and 75° C. for the Acremonium EG—40/Cel45A, EG—40 like/Cel45B, and Thermoascus EG—28/Cel5A, respectively (FIG. 6 B).

[2] = Temperature optimum of heterologously produced endoglucanases; settings: temperature range 50-85° C., CMC
Description: as §1

[3] = Hydrolysis with endoglucanase preparations, spruce; settings: 48 h, 45° C., pH 5.0
Description: (§2) The preparations containing the endoglucanases were compared in hydrolysis studies mixed with the purified CBH/Cel7 and CBH/Cel6 enzymes on several pre-treated substrates. Culture filtrates of T. reesei, containing different cloned endoglucanase enzymes were obtained as described in Example 19. The enzymes were enriched by removing thermolabile proteins from the mixtures by a heat treatment (60° C., 2 h, pH 5) and the supernatant was used for the hydrolysis studies. In addition, pure T. reesei cellulases (purified as described by Suurnäkki et al., 2000) were used in the enzyme mixtures. The endoglucanases used in the experiment were:
Washed steam pre-treated spruce fibre (impregnation with 3% SO2 for 20 min, followed by steam pre-treatment at 215° C. for 5 min), dry matter 25.9% (SPRUCE).
(§3) The endoglucanases to be studied (dosage 840 nkat/g dry matter, based on endoglucanase activity against HEC according to IUPAC, 1987) were used either with cellobiohydrolases of T. reesei (CBHI/Cel7A, 8.1 mg/g d.m. and CBHII/Cel6A, 2.0 mg/g d.m.) or with Thermoascus aurantiacus Cel7A with genetically attached CBD of T. reesei (10.1 mg/g d.m.). Purified (Suurnäkki et al., 2000) EGI (Cel7B) and EGII (Cel5A) of T. reesei were also included in the experiments for comparison. All mixtures were supplemented with additional β-glucosidase from Novozym 188 (to make the total β-glucosidase dosage 560 nkat/g d.w., the relatively high dosage was used to compensate the differences in the background activities of the different EG preparations). Triplicate tubes were incubated in mixing at 45° C. for 48 h and reference samples with inactivated enzymes and corresponding substrates were prepared. The release of hydrolysis products was measured as reducing sugars with DNS method using glucose as standard (Table 31).

[4] = Hydrolysis with endoglucanase preparations, corn stover; settings: 48 h, 45° C., pH 5.0
Description: as §2
Steam exploded corn stover fibre (steam pre-treatment at 210° C. for 5 min), dry matter 31.0% (SECS).
as §3

[5] = pH optimum of heterologously produced β-glucosidases; settings: McIlvaine's buffer, pH range 3.0-8.0, 4-nitrophenyl-β-D-glucopyranoside
Description: (§4) The pH optimum of the heterologously produced β-glucosidases was determined in the universal McIlvaine's buffer within a pH range of 3.0-8.0 using 4-nitrophenyl-β-D-glucopyranoside as substrate. The pH optima for the Acremonium βG—101, Chaetomium βG—76, and Thermoascus βG—81 are pH 4.5, 5.5, and 4.5, respectively (FIG. 7 A). The optimal temperature for enzymatic activity of these β-glucosidases was determined at the temperature range of 50-85° C. as described above. The highest activity of the enzymes was determined to be at 70° C., 65° C., and 75° C. for the Acremonium βG—101/Cel3A, Chaetomium βG—76/Cel3A, and Thermoascus βG—81/Cel3A, respectively (FIG. 7 B).

[6] = Temperature optimum of heterologously produced β-glucosidases; settings: temperature range 50-85° C., 60 min
Description: as §4

[7] = Endoglucanase activity on carboxymethyl cellulose; settings: purified endoglucanase, 50° C., procedure of IUPAC 1987
Description: The specific activity of the preparations was determined using 4-methylumbelliferyl-β-D-lactoside (MUL), 4-methylumbelliferyl-β-D-cellobioside (MUG2) or 4-methylumbelliferyl-β-D-cellotrioside (MUG3) as substrate (van Tilbeurgh et al., 1988) in 0.05 M sodium citrate buffer pH 5 at 50° C. for 10 min. Endoglucanase and xylanase activities were determined by standard procedures (according to IUPAC, 1987) using carboxymethyl cellulose (CMC) and birch glucuronoxylan (Bailey et al., 1992) as substrates. Specific activity against Avicel was calculated on the basis of reducing sugars formed in a 24 h reaction at 50° C., pH 5.0, with 1% substrate and 0.25 μM enzyme dosage. The protein content of the purified enzyme preparations was measured according to Lowry et al., 1951. To characterize the end products of hydrolysis, soluble sugars liberated in 24 h hydrolysis experiment, as described above, were analysed by HPLC (Dionex). Purified cellobiohydrolase I (CBHI/Cel7A) of Trichoderma reesei was used as a reference.
(§5) Acremonium thermophilum ALKO4245 was grown as described in Example 1. The culture supernatant was incubated at 70° C. for 24 hours after which it was concentrated by ultrafiltration. The pure endoglucanase was obtained by sequential purification with hydrophobic interaction and cation exchange chromatography followed by gel filtration. The endoglucanase activity of the fractions collected during purification was determined using carboxymethyl cellulose (CMC) as substrate (procedure of IUPAC 1987). Protein content was measured by BioRad Assay Kit (Bio-Rad Laboratories) using bovine serum albumine as standard.
as §5, with “Thermoascus aurantiacus ALKO4242 was” for “Acremonium thermophilum ALKO4245 was”, “1.” for “1. The culture supernatant was incubated at 70° C. for 24 hours after which it was concentrated by ultrafiltration.”, “and anion” for “and cation”

[8] = with CBHI and CBHII of T. reesei
[9] = with T. aurantiacus Cel7A + Tr CBD

| Molecule | pH optimum [1] | Temperature of highest activity [2] | Hydrolysis products as reducing sugars, SPRUCE [3, 8] | Hydrolysis products as reducing sugars, SECS [4, 8] | pH optimum [5] | Temperature of highest activity [6] | Specific activity on CMC [7] | pH range (broadest) ([1]; CMC) | Hydrolysis products as reducing sugars, SPRUCE [3, 9] | Hydrolysis products as reducing sugars, SECS [4, 9] |
| --- | --- | --- | --- | --- | --- | --- | --- | --- | --- | --- |
| B1 | 5.0-5.5 | 60 °C | 4.5 mg/mL | 4.8 mg/mL |  |  |  |  |  |  |
| B2 |  |  |  |  | 5.5 | 65 °C |  |  |  |  |
| B3 | 5.5 | 75 °C | 4.9 mg/mL | 4.3 mg/mL |  |  | 450 nkat/mg | 4.5-6.0 | 4.8 mg/mL | 4.0 mg/mL |
